Measured values: patent US10941200B2, “TREM2 cleavage modulators and uses thereof” (Deutsches Zentrum Für Neurodegenerative Erkrankungen EV, priority 2016, dated 2021)
Numbering of substitutions follows the chain as printed. Entries after “also recorded” stand apart in the source; their conditions may differ.

T1: human TREM2 (Homo sapiens, UniProt Q9NZC2)
T1 construct: HEK293 Flp-In cells either expressing human full-length TREM2 or empty vector; expressed in transfected cells
T1 sequence (Q9NZC2 19-230): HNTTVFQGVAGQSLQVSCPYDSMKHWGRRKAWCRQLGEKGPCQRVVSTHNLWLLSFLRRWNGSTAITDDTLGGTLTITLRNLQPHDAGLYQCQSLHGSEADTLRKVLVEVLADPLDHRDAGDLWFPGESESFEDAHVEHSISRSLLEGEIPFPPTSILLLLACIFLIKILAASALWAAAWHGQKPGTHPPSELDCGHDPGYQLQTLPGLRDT

B1: clone 7A12: rat monoclonal antibody against TREM2 cleavage site peptide; heavy chain variable SEQ ID NO: 25, light chain variable SEQ ID NO: 35 (antibody, V domains shown)
VH: EVKLLESGGGLVQPGGSMRLSCAASGFTFTDFYMNWIRQPAGKAPEWLGLIRNKANGYTTQYNPSVKGRFTISRDNTQNMLYLQMNTLRGEDTATYYCARIGINNGGSLDYWGQGVMVTVSS
VL: DILINQSPASLTVSAGEKVTMSCKSSQSLLYSEKNQDYLAWYQQKPGQSPKLLMYGASYRHTGVPDRFTGSGSGTDFTLTISSVQAEDLADYYCEQTYSYPYTFGAGTKLELK
modifications: Clone 7A12 variable region of the heavy chain; Clone 7A12 variable region of the light chain
B2: clone 10C3: rat monoclonal antibody against TREM2 cleavage site peptide; heavy chain variable SEQ ID NO: 28, light chain variable SEQ ID NO: 38 (antibody, V domains shown)
VH: B1 VH with K43E, A44T, A55T, N56K, Q61E, T87S, G90P, I103T
VL: B1 VL with N5I, E17A, K18R, K34N, S49F, M54I, Y59N
modifications: Clone 10C3 variable region of the heavy chain; Clone 10C3 variable region of the light chain
B3: clone 8A11: rat monoclonal antibody against TREM2 cleavage site peptide; heavy chain variable SEQ ID NO: 26, light chain variable SEQ ID NO: 36 (antibody, V domains shown)
VH: B1 VH with A55T, N56K, Q61E, P64T, T87S, G90P, I103V
VL: B1 VL with N5I, E17A, K18R, K34N, S49F, M54I, Y59N
modifications: Clone 8A11 variable region of the heavy chain; Clone 8A11 variable region of the light chain
B4: clone 15C5: rat monoclonal antibody against TREM2 cleavage site peptide; heavy chain variable SEQ ID NO: 30, light chain variable SEQ ID NO: 40 (antibody, V domains shown)
VH: B1 VH with N56Y, Q61E, N79D, G90A, N105Y
VL: B1 VL with M21V, K34S, S49F, M54I, D91H
modifications: Clone 15C5 variable region of the heavy chain; Clone 15C5 variable region of the light chain
B5: clone 18F9: rat monoclonal antibody against TREM2 cleavage site peptide; heavy chain variable SEQ ID NO: 29, light chain variable SEQ ID NO: 39 (antibody, V domains shown)
VH: B1 VH with A23V, A24V, P40A, A55V, T59R, Q61E, T77I, G90A
VL: B1 VL with K34N, S49F, M54I, Y59N
modifications: Clone 18F9 variable region of the heavy chain; Clone 18F9 variable chain of the light region
B6: clone 21A3: rat monoclonal antibody against TREM2 cleavage site peptide; heavy chain variable SEQ ID NO: 27, light chain variable SEQ ID NO: 37 (antibody, V domains shown)
VH: B1 VH
VL: B1 VL
modifications: Clone 21A3 variable region of the heavy chain; Clone 21A3 variable region of the light chain

Key:
human TREM2 [1] = molecular target: T1, human TREM2; experiment: sTREM2 ELISA of conditioned media from HEK293 Flp-In cells stably overexpressing wt TREM2 (ectodomain shedding); assay type: cell-based; conditions: normalized to immature TREM2; for sTREM2 levels (ELISA), result in words: antibody 50 μg/mL, 24 hrs, FIG. 7B
Experimental: (§1) 1*10^6-1.5*10^6 cells were seeded in the 6-well format. 24 hours later fresh medium was added to the cells. Antibody clones as generated by Dr. Feederle (Helmholtz Center Munich, Core Facility Monoclonal Antibody Development) were added simultaneously, i.e. for overnight treatment (about 24 hrs), at a final concentration of 50 μg/mL. On the next day, conditioned media and cells were collected and processed as described under “Preparation of conditioned media, cell lysates, and immunoblotting”.
(§2) ADAM10 inhibitor G1254023X (5 μM final concentration) and a control monoclonal antibody, which is specific for the C terminus of human TREM2, were used as positive and negative controls, respectively.
For quantitation of levels of sTREM2 in cell culture supernatants, an ELISA for human sTREM2 was established using the Meso Scale Discovery SECTOR Imager 2400. Streptavidin-coated 96-well plates were blocked overnight at 4° C. in 0.5% bovine serum albumin (BSA) and 0.05% Tween 20 in PBS (pH 7.4) (blocking buffer). For detection of human sTREM2, plates were shaken for 1 hour at room temperature with biotinylated polyclonal goat anti-human TREM2 capture antibody (0.25 mg/ml; R&D Systems) diluted in blocking buffer. Plates were washed subsequently four times with 0.05% Tween 20 in PBS (washing buffer) and incubated for 2 hours at room temperature with samples diluted 1:4 in 0.25% BSA and 0.05% Tween 20 in PBS (pH 7.4) (assay buffer) supplemented with protease inhibitors (Sigma). Recombinant human TREM2 protein (Holzel Diagnostika) was diluted in assay buffer in a two-fold serial dilution and used for the standard curve (concentration range, 4000 to […]). Plates were washed three times for 5 min with washing buffer before incubation for 1 hour at room temperature with mouse monoclonal anti-TREM2 antibody (1 mg/ml; Santa Cruz Biotechnology; B-3) diluted in blocking buffer. After three additional washing steps, plates were incubated with a SULFO-TAG-labeled anti-mouse secondary antibody (1:1000; Meso Scale Discovery) and incubated for 1 hour in the dark. Last, plates were washed three times with washing buffer followed by two washing steps in PBS and developed by adding Meso Scale Discovery Read buffer. The light emission at 620 nm after electrochemical stimulation was measured using the Meso Scale Discovery SECTOR Imager 2400 reader. To quantify the levels of sTREM2 secreted from HEK293 Flp-In cells, conditioned media from biological replicates were analyzed in duplicates. The sTREM2 standard curves were generated using the MasterPlex ReaderFit software (MiraiBio Group, Hitachi Solutions America) through a five-parameter logistic fit. Levels of sTREM2 were subsequently normalized to levels of immature TREM2 as quantified from Western Blots.

human TREM2 [2] = molecular target: T1, human TREM2; experiment: Immunoblotting of mature TREM2 in membrane fractions of HEK cells stably overexpressing wt TREM2; assay type: cell-based; conditions: for levels of mature TREM2 in the membrane fraction (quantified immunoblots), result in words: antibody 50 μg/mL, 24 hrs, normalized to immature TREM2, FIG. 7C
Experimental: HEK293 Flp-In cells stably overexpressing TREM2 or TREM2-DAP12 cDNA constructs were seeded at a density of 1.5×10^5/cm^2 and medium changed 48 h post seeding. Conditioned medium was collected after 18-20 h, immediately cooled down on ice, centrifuged at 13,000 rpm for 20 min at 4° C. and supernatants frozen at −20° C. until analysis. Supernatants were directly subjected to standard 15% SDS-PAGE. To prepare membrane fractions, cells were washed twice with ice-cold PBS, resuspended in ice-cold hypotonic buffer (0.01 M Tris, pH 7; 1 mM EDTA; 1 mM EGTA), freshly supplemented with protease inhibitor (Sigma) and incubated on ice for 30 min. After snap freezing in liquid
nitrogen and thawing, the disrupted cells were centrifuged at 13,000 rpm for 45 min at 4° C.
The resulting pellet was resuspended in STE lysis buffer (150 mM NaCl, 50 mM Tris-HCl,
pH 7.6, 2 mM EDTA, 1% Triton-X 100), incubated for 20 min on ice and clarified by centrifugation at 13,000 rpm for 30 min at 4° C. Protein concentrations were measured using the BCA method, equal amounts of protein were mixed with Laemmli sample buffer, supplemented with beta mercaptoethanol, separated by SDS-PAGE and transferred onto polyvinylidene difluoride membranes (Hybond P; Amersham Biosciences, Aylesbury, UK). Bound antibodies were visualized by corresponding HRP-conjugated secondary antibodies
using enhanced chemiluminescence technique (Pierce). Quantification of immunoblots was performed on a LAS-4000 image reader and analyzed using the Multi-Gauge V3.0 software (both Fujifilm Life Science).
as §1, §2

human TREM2 [3] = experiment: MALDI-TOF mass spectrometry analysis of TREM2 ectodomain cleavage (C-terminal fragment) in HEK293 cells; assay type: cell-based; conditions: C-terminally FLAG-tagged TREM2 in HEK293 cells, FIG. 1B
Experimental: HEK293 Flp-In cells stably expressing WT and H157Y TREM2 were harvested in PBS. Cell pellets were frozen at −20° C. until use. Cells were lysed in lysis buffer (4% DDM, 0.1% N-octylglucoside, 10 mM Tris-HCl, pH 8.0, 5 mM EDTA, and 140 mM NaCl) containing protease inhibitor mix (Sigma-Aldrich) for 20 min on ice. Following a clarifying spin at 13,000 g for 20 min, supernatants were subjected to a second clarifying spin by centrifugation at 100,000 g for 1 h, and incubated with anti-FLAG M2-agarose (Sigma-Aldrich) overnight by rotation at 4° C. Beads were washed four times with IP/MS buffer (0.1% N-octylglucoside, 10 mM Tris-HCl, pH 8.0, 5 mM EDTA, and 140 mM NaCl) and two times with water. Beads were stored at −20° C. until IP/MS analysis.
IP/MS analysis was performed using Voyager DE STR (Applied Biosystems) as described previously). Immunoprecipitated peptides were eluted with TFA/CH3CN/water (1:20:20) saturated with α-cyano-4-hydroxy cinnamic acid. The dissolved samples were dried on a stainless plate and subjected to MALDI-TOF MS analysis.

human TREM2 [4] = molecular target: T1, human TREM2; conditions: Kleinberger et al, 2014; cited from earlier work

Row | Molecule | sTREM2 levels (ELISA), result in words (human TREM2 [1]) | levels of mature TREM2 in the membrane fraction (quantified immunoblots), result in words (human TREM2 [2]) | further results
1 | CNC(=O)[C@@H](NC(=O)[C@H](CCCc1ccccc1)[C@H](C)N(O)C=O)C(C)(C)C [G1254023X] | – | – | decrease in shedding (sTREM2 ELISA) (human TREM2 [1]; ADAM10 inhibitor 5 μM, about 24 hrs, positive control): about 60%; levels of mature TREM2, result in words (human TREM2 [2]; ADAM10 inhibitor 5 μM, positive control): increased levels of mature TREM2; TREM2 C-terminal fragment cleavage peak in MALDI-TOF mass spectra upon ADAM inhibition (human TREM2 [3]; listed as GI): no identified peak; also recorded: did not show any peak; inhibition of TREM2 cleavage (literature) (human TREM2 [4]): strongly inhibit cleavage
2 | CNC(=O)[C@H](Cc1c[nH]c2ccccc12)NC(=O)[C@@H](CC(=O)NO)CC(C)C [GM] | – | – | TREM2 C-terminal fragment cleavage peak in MALDI-TOF mass spectra upon ADAM inhibition (human TREM2 [3]): no identified peak; also recorded: did not show any peak
3 | B1 | slight trend toward reduced sTREM2 levels | increased levels of TREM2 in the membrane fraction | –
4 | B2 | slight trend toward reduced sTREM2 levels | increased levels of TREM2 in the membrane fraction | –
5 | B3 | – | increased levels of TREM2 in the membrane fraction | –
6 | B4 | slight trend toward reduced sTREM2 levels | – | –
7 | B5 | slight trend toward reduced sTREM2 levels | – | –
8 | B6 | slight trend toward reduced sTREM2 levels | – | –
